According to patent US20240410900A1:

How the values were obtained:
[1] = target: non-targeted IgG-IL2 (interleukin-2 fused to the C-terminus of a heavy chain of a germline antibody, which is not binding to a target); experiment: bridging ELISA, IgG-IL2-Bi and -Dig, binder 0.1 ng/mL assay / 2.4 ng/mL matrix
[2] = target: non-targeted IgG-IL2 (interleukin-2 fused to the C-terminus of a heavy chain of a germline antibody, which is not binding to a target); experiment: bridging ELISA, IgG-IL2-Bi and -Dig, binder 0.2 ng/mL assay / 4.9 ng/mL matrix
[3] = target: non-targeted IgG-IL2 (interleukin-2 fused to the C-terminus of a heavy chain of a germline antibody, which is not binding to a target); experiment: bridging ELISA, IgG-IL2-Bi and -Dig, binder 0.06 ng/mL assay / 1.2 ng/mL matrix
[4] = target: non-targeted IgG-IL2 (interleukin-2 fused to the C-terminus of a heavy chain of a germline antibody, which is not binding to a target); experiment: bridging ELISA, IgG-IL2-Bi and -Dig, binder 125 ng/mL assay / 2500 ng/mL matrix
[5] = target: non-targeted IgG-IL2 (interleukin-2 fused to the C-terminus of a heavy chain of a germline antibody, which is not binding to a target); experiment: bridging ELISA, IgG-IL2-Bi and -Dig, binder 500 ng/mL assay / 10000 ng/mL matrix
[6] = target: TCB (T-cell bispecific format) drug antibody; experiment: bridging ELISA, drug-Bi and drug-Dig, human pooled serum, binder 0.00 ng/mL (blank)
[7] = target: non-targeted IgG-IL2 (interleukin-2 fused to the C-terminus of a heavy chain of a germline antibody, which is not binding to a target); experiment: as above
[8] = target: targeted IgG-IL2 (interleukin-2 fused to the C-terminus of a heavy chain of an antibody specifically binding to a therapeutic target); experiment: as above
[9] = target: TCB (T-cell bispecific format) drug antibody; experiment: bridging ELISA, drug-Bi and drug-Dig, human pooled serum, binder 63 ng/mL assay / 1250 ng/mL matrix
[10] = target: non-targeted IgG-IL2 (interleukin-2 fused to the C-terminus of a heavy chain of a germline antibody, which is not binding to a target); experiment: as above
[11] = target: targeted IgG-IL2 (interleukin-2 fused to the C-terminus of a heavy chain of an antibody specifically binding to a therapeutic target); experiment: as above
[12] = target: TCB (T-cell bispecific format) drug antibody; experiment: bridging ELISA, drug-Bi and drug-Dig, human pooled serum, binder 0.03 ng/mL assay / 0.6 ng/mL matrix
[13] = target: non-targeted IgG-IL2 (interleukin-2 fused to the C-terminus of a heavy chain of a germline antibody, which is not binding to a target); experiment: as above
[14] = target: targeted IgG-IL2 (interleukin-2 fused to the C-terminus of a heavy chain of an antibody specifically binding to a therapeutic target); experiment: as above

- signal [AU] [1]: 0.058 AU
- signal [AU] [2]: 0.0645 AU
- signal [AU] [3]: 0.056 AU
- signal [AU] [4]: 3.08 AU
- signal [AU] [5]: 3.09 AU
- signal [AU] [6]: 0.0425 AU
- signal [AU] [7]: 0.041 AU
- signal [AU] [8]: 0.0395 AU
- signal [AU] [9]: 2.86 AU
- signal [AU] [10]: 0.77 AU
- signal [AU] [11]: 2.63 AU
- signal [AU] [12]: 0.0455 AU
- signal [AU] [13]: 0.0425 AU
- signal [AU] [14]: 0.04 AU
B1: multivalent anti-PG antibody derived from clone 1.7.24 (mixed Pool 2, 3, 4) (antibody, V domains shown)
VH: EVKLLESGGGLVQPGGSLKLSCAASGFDFSRYWMNWVRQAPGKGLEWIGEITPDSSTINYTPSLKDKFIISRDNAKNTLYLQMIKVRSEDTALYYCVRPYDYGAWFASWGQGTLVTVSA
VL: QAVVTQESALTTSPGETVTLTCRSSTGAVTTSNYANWVQEKPDHLFTGLIGGTNKRAPGVPARFSGSLIGDKAALTITGAQTEDEAIYFCALWYSNHWVFGGGTKLTVL
modifications: lysine amines derivatised with SATP or MHS and cross-linked (sites not given)
